Test results: patent US20230056404A1 (priority 2019, published 2023)

Columns and labels:
[1] = system: HEK293 cells; format: cell-based, human
[2] = target: T1, DRD1 (Homo sapiens, UniProt P21728); test: DRD1-Strep functional activity, cAMP-Glo assay; format: cell-based; conditions: HEK293 expressing DRD1-Strep
T1 construct: expressed in transfected cells; host or cells: HEK293
Method: In addition to the illustration of a correctly translocated GPCR such as DRD1, activity tests were performed using a DRD1-Strep fusion. The smaller strep-tag ensures that the interaction with the cytosolic located G-protein is intact, and a functional assay can be performed. Upon binding of dopamine, DRD1 releases the heterotrimeric G-protein to its Gα subunit and its Gβγ complex. In the resting state, Ga binds GDP but upon activation exchanges GTP for GDP. The Gα-GTP complex interacts with adenylate cyclase (AC), resulting in activation of AC activity and consequently, increasing cAMP levels. Changes in intracellular cAMP levels can be measured by standard cAMP assays. The academic and industry standard (EG5) was compared to the same target protein in co-expression with the L-protein of ECMV.
DRD1-Strep fusions were expressed in HEK293 cells. […] Protein was expressed for 48 h and DRD1 activity was analyzed using the cAMP-Glo™ assay (Promega) according to manufacturer's instructions. After 48 h, cells were washed with sterile PBS pH 7.2 and cells were incubated for 2 h with 20 μl of a 1 mM dopamine substrate solution (+dopamine; ON) or PBS pH 7.2 (−dopamine; OFF) at 37° C. […] Luminescence was measured using a plate reader (BioTek Synergy™ LX) and data were analyzed using standard analysis programs.

[3] = system: Sf9 cells; test: DRD1-GFP expression, localization and toxicity in Sf9 cells; conditions: Sf9, 72 h
Method: DRD1-GFP fusions were expressed in Sf9 cells. Sf9 cells were seeded at 0.4×10^6 cells/well in a 6 well plate and incubated for 15 min at RT before transiently transfecting with either EG10 or EG8 using Cellfectin Reagent II (Thermofisher) according to manufactures instruction. DRD1-GFP expression was monitored after 72 h using fluorescence microscopy. Images were taken and analyzed by an Echo Revolve microscopy system.

[4] = system: HEK293 cells; test: C1-Inhibitor secretion and purification, total amount produced; format: cell-based, human; conditions: presence vs absence of the enhancer protein (L protein from EMCV, EG11), HEK293, 72 h
Method: (§1) C1-Inh-Myc-Flag fusions were expressed in HEK293 cells. HEK293 cells were seeded at 1.75×10^6/ml cells in 100 ml shaking flask and incubated at 37° C., 5% CO2 and 120 rpm overnight before transiently transfecting with a vector encoding C1-Inh (OriGene; CAT #: RC203767) either alone, or in combination with EG11 by transfection of suspension cells using methods known in the art and/or disclosed herein. Supernatant containing the expressed recombinant C1-Inh protein was harvested after 72 h and supernatant was cleared by centrifugation followed by filtration ([…], nitrocellulose). To purify C1-Inh, Anti-Flag resin (ANTI-FLAG M2 Affinity Gel, Millipore Sigma) was equilibrated with 20 mM Tris pH 7.5, 50 mM NaCl prior to adding to the supernatant. Supernatant was incubated with the resin for 2 h at 4° C. with shaking. Resin was settled and washed with 5 CV 20 mM Tris pH 7.5, 50 mM NaCl and protein was eluted with 4 CV 20 mM Tris pH 7.5, 50 mM NaCl, 0.2 mg/ml 3× Flag Peptide. Purification was analyzed by SDS-PAGE (SurePAGE, Bis-Tris, GenScript) and protein containing fractions were pooled. Protein concentration was analyzed by BCA Assay (ThermoFisher) according to manufactures instructions and normalized C1-Inh was tested for activity using Immunoassay (MicroVue C1-Inhibitor Plus EIA, Quidel) following manufactures instructions.

[5] = Active C1-Inhibitor, MicroVue C1-Inhibitor Plus EIA; format: biochemical; conditions: presence vs absence of the enhancer protein, protein concentration normalized
Method: as §1

[6] = system: CHO-K1 cells; test: DRD1-GFP expression and membrane localization in CHO-K1 cells; conditions: CHO-K1, 48 h
Method: DRD1-GFP fusions proteins were expressed in CHO-K1 cells. CHO-K1 cells were seeded at 0.05×10^6 cells/well in a 24 well plate and incubated at 37° C. and 5% CO2 overnight before transiently transfecting with either EG10 or EG19 using Lipofectamine 3000 (Thermofisher) according to manufactures instructions. DRD1-GFP expression was monitored after 48 h using fluorescence microscopy. Images were taken and analyzed by an Echo Revolve microscopy system.

T1 sequence (P21728 with tags, fused parts or gaps): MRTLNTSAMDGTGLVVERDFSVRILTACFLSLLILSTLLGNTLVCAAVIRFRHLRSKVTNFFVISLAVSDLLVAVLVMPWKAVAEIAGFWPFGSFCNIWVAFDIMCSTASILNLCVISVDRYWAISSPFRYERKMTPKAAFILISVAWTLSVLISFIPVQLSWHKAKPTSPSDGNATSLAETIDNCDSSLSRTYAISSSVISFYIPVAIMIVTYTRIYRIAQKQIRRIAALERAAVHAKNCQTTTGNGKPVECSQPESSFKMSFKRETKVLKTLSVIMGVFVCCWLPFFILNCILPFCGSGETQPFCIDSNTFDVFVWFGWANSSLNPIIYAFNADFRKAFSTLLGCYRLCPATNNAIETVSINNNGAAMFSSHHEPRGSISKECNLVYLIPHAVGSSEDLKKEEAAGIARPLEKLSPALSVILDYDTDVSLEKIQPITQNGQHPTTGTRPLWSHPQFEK

Molecule: Leader protein of ECMV: Leader protein of Encephalomyocarditis virus (EMCV), SEQ ID NO: 2, enhancer protein
- DRD1-GFP membrane association, enhancer on a separate vector [1]: ensures correct membrane association
- DRD1-GFP translocation into the outer membrane / inclusion bodies [1]: sufficient to ensure a correct membrane incorporation of DRD1-GFP
- activating signal, difference between OFF (-dopamine) and ON (+dopamine) luminescence ([2]; 1 mM dopamine 2 h): strong activating signal
- leaky activation, OFF signal compared to non-transfected cells ([2]; absence of dopamine): greatly reduced
- DRD1-GFP translocation and localization [3]: improved expression and localization of the membrane protein

B1: C1-Inhibitor: secreted protease inhibitor of the serpin superfamily, expressed as C1-Inh-myc-flag fusion (protein, UniProt P05155 23-500, looked up)
Plasma protease C1 inhibitor: NPNATSSSSQDPESLQDRGEGKVATTVISKMLFVEPILEVSSLPTTNSTTNSATKITANTTDEPTTQPTTEPTTQPTIQPTQPTTQLPTDSPTQPTTGSFCPGPVTLCSDLESHSTEAVLGDALVDFSLKLYHAFSAMKKVETNMAFSPFSIASLLTQVLLGAGENTKTNLESILSYPKDFTCVHQALKGFTTKGVTSVSQIFHSPDLAIRDTFVNASRTLYSSSPRVLSNNSDANLELINTWVAKNTNNKISRLLDSLPSDTRLVLLNAIYLSAKWKTTFDPKKTRMEPFHFKNSVIKVPMMNSKKYPVAHFIDQTLKAKVGQLQLSHNLSLVILVPQNLKHRLEDMEQALSPSVFKAIMEKLEMSKFQPTLLTLPRIKVTTSQDMLSIMEKLEFFDFSYDLNLCGLTEDPDLQVSAMQHQTVLELTETGVEAAAASAISVARTLLVFEVQQPFLFVLWDQQHKFPVFMGRVYDPRA
modifications: myc-flag tag
- increase of total amount of produced C1-Inhibitor [4]: > 30%
- increase of amount of active C1-Inhibitor [5]: > 10%

B2: Leader protein of Theiler's virus: Leader protein of Theiler's virus, SEQ ID NO: 1, enhancer protein (protein)
chain: MACKHGYPLMCPLCTALDKTSDGLFTLLFDNEWYPTDLLTVDLEDEVFYPDDPHMEWTDLPLIQDIEMEPQ
modifications: Cardiovirus Theiler's-like cardiovirus
- DRD1-GFP translocation into the outer membrane / inclusion bodies [1]: sufficient to ensure a correct membrane incorporation of DRD1-GFP
- DRD1-GFP translocation and localization [6]: improved expression and localization of the membrane protein
